Assay [1] addresses 5'FAM-labeled F14.5 peptide. The assay is described as follows: fluorescence polarisation; 20 nM 5'FAM-labeled peptide with rising concentrations of Streptavidin/StrepTactin, triplicates; ES2 buffer (100 mM potassium phosphate pH 7.4, 100 μg/ml bovine γ globulin, 0.02% NaN3); at least 2 h at RT or o/n at 4 °C.
Assay [2] has as its target 5'FAM-labeled Strep-tag II peptide. The description is as above.

The values that follow come from PMC5463365, “Assembly and use of high-density recombinant peptide chips for large-scale ligand screening is a practical alternative to synthetic peptide libraries” (BMC Genomics, 2017).

Take Recombinant StrepTactin, unconjugated: the Kd was found to be 44.3 µM in assay [1] and 0.43 µM in assay [2].
